Assay results published in patent publication US9175313B2, “Three-dimensional structure of isoprene synthase and its use thereof for generating variants” (Danisco US Inc., priority 2009, dated 2015).

Experiments:
[1] = Small scale expression and yield of purified 6xHis-tagged IspS variants; conditions: BL21(λDE3)pLysS, 100 mL cultures
Description: N-terminally 6×His-tagged wild type IspS, IspS-L494P, and IspS-T536F were expressed and purified from strains MD09-167, DW399, and DW363, respectively. The growth procedure is suitable for histidine tagged enzymes expressed in BL21(λDE3)pLysS cells. A 3 ml of overnight culture was prepared for each 100 mL of planned growth. The appropriate antibiotics ([…] kanamycin, […] chloramphenicol) were added to 3 ml of LB medium in a 10 ml glass tube and was inoculated with 1 colony from a fresh plate of cells or directly from glycerol frozen cell stock. Cultures were grown at 30° C. overnight with shaking at ˜220 rpm. Day cultures were prepared in 100 mL of LB medium with appropriate antibiotics for each culture. Each 100 mL day culture was inoculated with 50 μl of overnight culture and grown at 37° C. with shaking at ˜220 rpm until the OD600 reached ˜0.4-0.6. Day cultures were then induced with 400 μM IPTG and allowed to continue growing at 30° C. with shaking at 220 rpm for ˜5-6 hours. […] Following Harvest, cells were used directly or stored at −80° C. until ready to process. […]
To buffer exchange the protein into a buffer suitable for protein assays and storage, a PD-10 column (GE Healthcare) was equilibrated with 25 mL PD-10 buffer (50 mM HEPES, 0.05 M NaCl, pH 7.4). […] The eluate was then analyzed by absorbance at 280 nm and SDS-PAGE gel and the samples were stored at −80° C.

[2] = Differential scanning calorimetry, thermal midpoint (Tm); format: physicochemical
Description: Excessive heat capacity curves were measured using an ultrasensitive scanning high-throughput microcalorimeter, VP-Cap DSC (MicroCal, Inc., Northampton, Mass.). The standard procedure for Differential Scanning calorimetry (DSC) measurements and the theory of the technique is previously published (Freire, E. (1995) Differential Scanning calorimetry Methods. Mol. Biol. 41, 191-218). Approximately 500 μL of 0.5 mg/ml IspS (from strain MD09-167) or variant IspS-L494P (from strain DW399) and IspS-T536F (from strain DW363) (in the absence or presence of 5 mM sodium pyrophosphate) were scanned over a 30-100° C. temperature range. The same sample was then re-scanned to check the reversibility of the process. For IspS the thermal unfolding process was irreversible. The buffer used was 50 mM HEPES, 5 mM MgCl2, pH 7.4, with and without 5 mM sodium pyrophosphate. Sodium pyrophosphate was included for its ability to function as a substrate analog. A 200° C./hr scan rate was used to minimize any artifacts that may result from aggregation. The thermal midpoint (Tm) of the DSC curves was used as an indicator of the thermal stability. The thermal melting curves and the melting points for the wild type IspS and variants are shown in FIG. 56 (buffer only) and 57 (with 5 mM sodium pyrophosphate).

[3] = buffer alone (50 mM HEPES, 5 mM MgCl2, pH 7.4)
[4] = in the presence of 5 mM sodium pyrophosphate

Row | Molecule | expression level (yield of purified protein) compared to wild type, in words [1] | increase in the Tm vs wild type ([2]; buffer alone) [°C] | thermal melting point (Tm) [2, 3] [°C] | increase in the Tm vs wild type [2, 4] [°C] | thermal melting point (Tm) [2, 4] [°C]
1 | L494P: P. alba IspS variant L494P; pDW101, strain DW399, SEQ ID NO: 69 (protein) MEARRSANYEPNSWDYDYLLSSDTDESIEVYKDKAKKLEAEVRREINNEKAEFLTLLELIDNVQRLGLGYRFESDIRGALDRFVSSGGFDAVTKTSLHGTALSFRLLRQHGFEVSQEAFSGFKDQNGNFLENLKEDIKAILSLYEASFLALEGENILDEAKVFAISHLKELSEEKIGKELAEQVNHALELPLHRRTQRLEAVWSIEAYRKKEDANQVLLELAILDYNMIQSVYQRDLRETSRWWRRVGLATKLHFARDRLIESFYWAVGVAFEPQYSDCRNSVAKMFSFVTIIDDIYDVYGTLDELELFTDAVERWDVNAINDLPDYMKLCFLALYNTINEIAYDNLKDKGENILPYLTKAWADLCNAFLQEAKWLYNKSTPTFDDYFGNAWKSSSGPLQLVFAYFAVVQNIKKEEIENLQKYHDTISRPSHIFRLCNDLASASAEIARGETANSVSCYMRTKGISEELATESVMNLIDETWKKMNKEKLGGSPFAKPFVETAINLARQSHCTYHNGDAHTSPDELTRKRVLSVITEPILPFERENLYFQGLEHHHHHH | expressed at higher levels than the wild type protein | 2.1 | 60.4 | 2.3 | 57.0
2 | T536F: P. alba IspS variant T536F; pDW87, strain DW363, SEQ ID NO: 95 (protein) MEARRSANYEPNSWDYDYLLSSDTDESIEVYKDKAKKLEAEVRREINNEKAEFLTLLELIDNVQRLGLGYRFESDIRGALDRFVSSGGFDAVTKTSLHGTALSFRLLRQHGFEVSQEAFSGFKDQNGNFLENLKEDIKAILSLYEASFLALEGENILDEAKVFAISHLKELSEEKIGKELAEQVNHALELPLHRRTQRLEAVWSIEAYRKKEDANQVLLELAILDYNMIQSVYQRDLRETSRWWRRVGLATKLHFARDRLIESFYWAVGVAFEPQYSDCRNSVAKMFSFVTIIDDIYDVYGTLDELELFTDAVERWDVNAINDLPDYMKLCFLALYNTINEIAYDNLKDKGENILPYLTKAWADLCNAFLQEAKWLYNKSTPTFDDYFGNAWKSSSGPLQLVFAYFAVVQNIKKEEIENLQKYHDTISRPSHIFRLCNDLASASAEIARGETANSVSCYMRTKGISEELATESVMNLIDETWKKMNKEKLGGSLFAKPFVETAINLARQSHCTYHNGDAHTSPDELTRKRVLSVIFEPILPFERENLYFQGLEHHHHHH | expressed at higher levels than the wild type protein | 3.8 | 62.1 | 4.7 | 59.4
